From PMC8927968, “Lysine Methylation Modulates the Interaction of Archaeal Chromatin Protein Cren7 With DNA”
Where a chain is given by its changes, count along the chain named.

Experiments:
Cren7 K24Q K24Q = target: T1, Cren7 K24Q K24Q (UniProt C3NHU3); test: DNA-cellulose pull-down (bridging); settings: BLI: 20 mM Tris-HCl pH 6.8, 100 mM KCl, 1 mM EDTA, 0.05% Tween-20, 30°C; pull-down: 10 mM HEPES pH 7.6, 100 mM KCl, 2.5 mM MgCl2, 0.1 mg/mL BSA, room …
T1 sequence: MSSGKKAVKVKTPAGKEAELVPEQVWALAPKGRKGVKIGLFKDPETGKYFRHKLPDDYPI

[1] = target: T2, Cren7WT (native, methylated) (Sulfolobus islandicus E234) (UniProt C3NHU3); test: DNA-cellulose pull-down (bridging); settings: BLI: 20 mM Tris-HCl pH 6.8, 100 mM KCl, 1 mM EDTA, 0.05% Tween-20, 30°C; pull-down: 10 mM HEPES pH 7.6, 100 mM KCl, 2.5 mM MgCl2, 0.1 mg/mL BSA, room …
T2 sequence: T1 sequence with Q24K

Cren7 K42Q K42Q = target: T3, Cren7 K42Q K42Q (UniProt C3NHU3); test: DNA-cellulose pull-down (bridging); settings: BLI: 20 mM Tris-HCl pH 6.8, 100 mM KCl, 1 mM EDTA, 0.05% Tween-20, 30°C; pull-down: 10 mM HEPES pH 7.6, 100 mM KCl, 2.5 mM MgCl2, 0.1 mg/mL BSA, room …
T3 sequence: T1 sequence with Q24K, K42Q

rCren7 [2] = target: T4, rCren7 (UniProt C3NHU3 1-60); test: DNA-cellulose pull-down (bridging); settings: dsDNA-cellulose, 2.5 mM MgCl2, BLI: 20 mM Tris-HCl pH 6.8, 100 mM KCl, 1 mM EDTA, 0.05% Tween-20, 30°C, pull-down: 10 mM HEPES pH 7.6, 100 mM KCl, 2.5 mM MgCl2, 0.1 mg/mL BSA, room …
T4 sequence: T1 sequence with Q24K

Cren7 K31Q K31Q = target: T5, Cren7 K31Q K31Q (UniProt C3NHU3); test: DNA-cellulose pull-down (bridging); settings: BLI: 20 mM Tris-HCl pH 6.8, 100 mM KCl, 1 mM EDTA, 0.05% Tween-20, 30°C; pull-down: 10 mM HEPES pH 7.6, 100 mM KCl, 2.5 mM MgCl2, 0.1 mg/mL BSA, room …
T5 sequence: T1 sequence with Q24K, K31Q

Cren7 K48Q K48Q = target: T6, Cren7 K48Q K48Q (UniProt C3NHU3); test: DNA-cellulose pull-down (bridging); settings: BLI: 20 mM Tris-HCl pH 6.8, 100 mM KCl, 1 mM EDTA, 0.05% Tween-20, 30°C; pull-down: 10 mM HEPES pH 7.6, 100 mM KCl, 2.5 mM MgCl2, 0.1 mg/mL BSA, room …
T6 sequence: T1 sequence with Q24K, K48Q

[3] = test system: Sis7dWT (native, methylated) (Sulfolobus islandicus E234); test: BLI; settings: BLI: 20 mM Tris-HCl pH 6.8, 100 mM KCl, 1 mM EDTA, 0.05% Tween-20, 30°C; pull-down: 10 mM HEPES pH 7.6, 100 mM KCl, 2.5 mM MgCl2, 0.1 mg/mL BSA, room …
rSis7d = test: BLI; settings: BLI: 20 mM Tris-HCl pH 6.8, 100 mM KCl, 1 mM EDTA, 0.05% Tween-20, 30°C; pull-down: 10 mM HEPES pH 7.6, 100 mM KCl, 2.5 mM MgCl2, 0.1 mg/mL BSA, room …
[4] = test system: Sis7dΔaKMT (native, unmodified) (Sulfolobus islandicus ΔaKMT); test: BLI; settings: BLI: 20 mM Tris-HCl pH 6.8, 100 mM KCl, 1 mM EDTA, 0.05% Tween-20, 30°C; pull-down: 10 mM HEPES pH 7.6, 100 mM KCl, 2.5 mM MgCl2, 0.1 mg/mL BSA, room …
Cren7 K24Q = target: T7, Cren7 K24Q (UniProt C3NHU3 1-60, K24Q); test: BLI; BLI: 20 mM Tris-HCl pH 6.8, 100 mM KCl, 1 mM EDTA, 0.05% Tween-20, 30°C; pull-down: 10 mM HEPES pH 7.6, 100 mM KCl, 2.5 mM MgCl2, 0.1 mg/mL BSA, room temperature; settings: protein: recombinant; label: 5' biotin on strand 1; blunt
T7 sequence: T1 sequence

Cren7 K42Q = target: T8, Cren7 K42Q (UniProt C3NHU3 1-60, K42Q); test: as above; settings: protein: recombinant; label: 5' biotin on strand 1; blunt
T8 sequence: T1 sequence with Q24K, K42Q

rCren7 [5] = target: T4, rCren7; test: as above; settings: protein: recombinant; label: 5' biotin on strand 1; blunt
Cren7 K48Q = target: T9, Cren7 K48Q (UniProt C3NHU3 1-60, K48Q); test: as above; settings: protein: recombinant; label: 5' biotin on strand 1; blunt
T9 sequence: T1 sequence with Q24K, K48Q

Cren7 K31Q = target: T10, Cren7 K31Q (UniProt C3NHU3 1-60, K31Q); test: as above; settings: protein: recombinant; label: 5' biotin on strand 1; blunt
T10 sequence: T1 sequence with Q24K, K31Q

For pBR322, the binding signal (Cren7 K24Q K24Q) was < 10 % of rCren7, the binding signal (% (barely detected)) [1] was under 10 and the binding signal (Cren7 K42Q K42Q) was < 10 % of rCren7. For the same molecule, the binding signal (% input pulled down) (rCren7 [2]; 5 uM protein) was 18, the binding signal (% input pulled down) (rCren7 [2]; 10 uM protein) was 35 and the binding signal (Cren7 K31Q K31Q) was < 10 % of rCren7. For the same molecule, the binding signal (Cren7 K48Q K48Q) was < 10 % of rCren7.

Work on “TAGAGCCCTAGTCTTCCAAACTAGCTACGC (double strand) [D30]” yielded a Kd [3] of 1640 nM, a Kd (rSis7d) of 1040 nM and a Kd [4] of 1370 nM.

B1: D30 (dsDNA)
DNA 1: TAGAGCCCTAGTCTTCCAAACTAGCTACGC
DNA 2: GCGTAGCTAGTTTGGAAGACTAGGGCTCTA
B1 was tested, and the Kd (Cren7 K24Q) was 217 nM, the Kd (Cren7 K42Q) was 1120 nM and the Kd (rCren7 [5]) was 125 nM. The Kd (Cren7 K48Q) was 199 nM and the Kd (Cren7 K31Q) was 103 nM.
